The results in this text go back to patent publication US20160251438A1 (LUDWIG INSTITUTE FOR CANCER RESEARCH, published 2016).

A value given as a limit tells only on which side of the number the result lay.

Common to all, as to assay: flow cytometry on transfected 293T cells, 5 ug/ml; grade of Loss of binding read by footnote 2
On the technique in general: Flow cytometry measures light scatter and fluorescence of single cells or particles in a stream.

Assay [1] deals with GARP L140K/E142L / TGF-β1 complex (human, UniProt Q14392 20-662; P01137 30-390). From the text: (§1) Resolution of the crystal structure of MHG-8 Fab/GARP/TGF-β1 complexes and analysis with the CONTACT software allowed the identification of 22 amino-acids in GARP, 8 amino-acids in LAP and 6 amino-acids in mature TGF-β1 that are located less than 5 Å away from an amino-acid of the light or heavy chain of the MHG-8 Fab (Tables 7a, b and c, and Table 8). Directed mutagenesis was used to construct plasmids encoding HA-tagged forms of GARP or TGF-β1 that are mutated at one, two, or three of these 36 positions (all mutations constructed are indicated in Table 8). […] Antibodies were used at a saturating concentration of 5 μg/ml for labeling. Binding of each antibody to a given mutant GARP/TGF-β1 complex was compared to their binding to wild type (WT) complexes, by determining an I_{m/wt} value (i.e. intensity of binding to mutant by comparison to WT). This value was calculated as follows: I_{m/wt} of antibody X=[Geom on mutant−Geom on control]/[Geom on WT−Geom on control]
(§2) The level of residual binding of anti-GARP or anti-LAP antibodies to each mutant was then calculated by comparison to WT, taking into account the expression levels of mutant and WT forms as measured with anti-HA antibodies. Residual binding was calculated as follows: Residual binding by an anti-GARP or anti-LAP antibody=[I_{m/wt} with anti-GARP or anti-LAP antibody]/[I_{m/wt} with anti-HA antibody]

The target in assay [2] is GARP / TGF-β1 Y284A complex (human, UniProt Q14392 20-662; P01137 30-390).
From the text: as §1, §2

Assay [3] has as its target GARP E189A / TGF-β1 complex (human, UniProt Q14392 20-662; P01137 30-390).
From the text: as §1, §2

Assay [4] addresses GARP / TGF-β1 Q272Y complex (human, UniProt Q14392 20-662; P01137 30-390).
From the text: as §1, §2

For assay [5], the target named is GARP Y137H/S138G/G139N / TGF-β1 complex (human, UniProt Q14392 20-662; P01137 30-390).
From the text: as §1, §2

Assay [6] addresses GARP R163A/T165A / TGF-β1 complex (human, UniProt Q14392 20-662; P01137 30-390).
From the text: as §1, §2

Assay [7] deals with GARP S116N / TGF-β1 complex (human, UniProt Q14392 20-662; P01137 30-390).
From the text: as §1, §2

Assay [8] has as its target GARP T162D / TGF-β1 complex (human, UniProt Q14392 20-662; P01137 30-390).
From the text: as §1, §2

The target in assay [9] is GARP T165A / TGF-β1 complex (human, UniProt Q14392 20-662; P01137 30-390).
From the text: as §1, §2

Assay [10] concerns the target GARP / TGF-β1 Q345A complex (human, UniProt Q14392 20-662; P01137 30-390).
From the text: as §1, §2

Assay [11] addresses GARP A114R / TGF-β1 complex (human, UniProt Q14392 20-662; P01137 30-390).
From the text: as §1, §2

Assay [12] has as its target GARP R143A / TGF-β1 complex (human, UniProt Q14392 20-662; P01137 30-390).
From the text: as §1, §2

In assay [13] the target is GARP / TGF-β1 E100A complex (human, UniProt Q14392 20-662; P01137 30-390).
From the text: as §1, §2

In assay [14] the target is GARP / TGF-β1 Q269Y complex (human, UniProt Q14392 20-662; P01137 30-390).
From the text: as §1, §2

Assay [15] concerns the target GARP R166M/H167E / TGF-β1 complex (human, UniProt Q14392 20-662; P01137 30-390).
From the text: as §1, §2

Assay [16] concerns the target GARP A117R / TGF-β1 complex (human, UniProt Q14392 20-662; P01137 30-390).
From the text: as §1, §2

For assay [17], the target named is GARP G118L/G119L / TGF-β1 complex (human, UniProt Q14392 20-662; P01137 30-390).
From the text: as §1, §2

Assay [18] concerns the target GARP / TGF-β1 H270Y complex (human, UniProt Q14392 20-662; P01137 30-390).
From the text: as §1, §2

GARP T165A / TGF-β1 complex, sequence (Q14392 20-662 T165A limits assumed, chain 1 of 2): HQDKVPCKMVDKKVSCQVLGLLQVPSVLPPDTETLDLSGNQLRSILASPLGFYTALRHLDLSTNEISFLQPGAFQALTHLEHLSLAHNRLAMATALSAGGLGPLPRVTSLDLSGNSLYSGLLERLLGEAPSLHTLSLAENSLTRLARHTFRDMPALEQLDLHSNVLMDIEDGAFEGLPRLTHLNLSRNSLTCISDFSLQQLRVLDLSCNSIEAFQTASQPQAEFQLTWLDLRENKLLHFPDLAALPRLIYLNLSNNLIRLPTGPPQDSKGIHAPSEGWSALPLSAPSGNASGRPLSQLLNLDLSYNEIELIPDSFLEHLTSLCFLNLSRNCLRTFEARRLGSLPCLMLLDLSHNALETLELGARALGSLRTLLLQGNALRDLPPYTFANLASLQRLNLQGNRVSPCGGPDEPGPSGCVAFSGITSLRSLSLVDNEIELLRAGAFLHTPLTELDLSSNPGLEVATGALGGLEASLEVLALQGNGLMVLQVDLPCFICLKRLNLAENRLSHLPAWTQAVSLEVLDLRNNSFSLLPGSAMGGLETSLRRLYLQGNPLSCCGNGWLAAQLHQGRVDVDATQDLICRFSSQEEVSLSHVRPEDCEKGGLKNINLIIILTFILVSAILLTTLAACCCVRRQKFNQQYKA
GARP T165A / TGF-β1 complex, sequence (P01137 30-390 limits assumed, chain 2 of 2): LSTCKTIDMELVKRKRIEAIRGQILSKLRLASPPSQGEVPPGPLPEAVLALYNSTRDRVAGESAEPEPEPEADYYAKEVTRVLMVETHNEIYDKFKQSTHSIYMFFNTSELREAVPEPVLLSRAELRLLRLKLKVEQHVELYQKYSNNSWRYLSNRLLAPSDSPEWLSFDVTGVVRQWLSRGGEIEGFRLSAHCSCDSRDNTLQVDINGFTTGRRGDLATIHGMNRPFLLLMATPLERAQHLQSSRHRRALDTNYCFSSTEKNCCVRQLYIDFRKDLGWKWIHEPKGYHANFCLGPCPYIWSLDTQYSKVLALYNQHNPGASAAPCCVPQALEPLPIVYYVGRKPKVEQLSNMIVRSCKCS
GARP Y137H/S138G/G139N / TGF-β1 complex, sequence (Q14392 20-662 Y137H/S138G/G139N limits assumed, chain 1 of 2): as the sequence (Q14392 20-662 T165A limits assumed, chain 1 of 2) above, with Y118H, S119G, G120N, A146T counted along it
GARP Y137H/S138G/G139N / TGF-β1 complex, sequence (P01137 30-390 limits assumed, stated change not applied, chain 2 of 2): as the sequence (P01137 30-390 limits assumed, chain 2 of 2) above
GARP R143A / TGF-β1 complex, sequence (Q14392 20-662 R143A limits assumed, chain 1 of 2): as the sequence (Q14392 20-662 T165A limits assumed, chain 1 of 2) above, with R124A, A146T counted along it
GARP R143A / TGF-β1 complex, sequence (P01137 30-390 limits assumed, chain 2 of 2): as the sequence (P01137 30-390 limits assumed, chain 2 of 2) above
GARP / TGF-β1 Q272Y complex, sequence (Q14392 20-662 limits assumed, chain 1 of 2): as the sequence (Q14392 20-662 T165A limits assumed, chain 1 of 2) above, with A146T counted along it
GARP / TGF-β1 Q272Y complex, sequence (P01137 30-390 Q272Y limits assumed, chain 2 of 2): as the sequence (P01137 30-390 limits assumed, chain 2 of 2) above, with Q243Y counted along it

B1: LHG-10 (antibody, human IgG1, V domains shown)
VH: EVQLVQPGAELRNSGASVKVSCKASGYRFTSYYIDWVRQAPGQGLEWMGRIDPEDGGTKYAQKFQGRVTFTADTSTSTAYVELSSLRSEDTAVYYCARNEWETVVVGDLMYEYEYWGQGTQVTVSS
VL: DIQMTQSPTSLSASLGDRVTITCQASQSISSYLAWYQQKPGQAPKLLIYGASRLQTGVPSRFSGSGSGTSFTLTISGLEAEDAGTYYCQQYDSLPVTFGQGTKVELK
notes: llama-derived V regions in a full human IgG1
In the case of B1, the “residual binding on mutant by comparison to WT” value (shortened to “residual binding on mutant”) was at least 50% in assay [1]; at least 50% in assay [2]; at least 50% in assay [3]; at least 50% in assay [4]; under 50% in assay [5]; at least 50% in [6]. Moreover, the “residual binding on mutant” value in assay [7] was at least 50%; in [8], under 50%; in assay [9], at least 50%; in assay [10], at least 50%; in assay [11], at least 50%; in [12], at least 50%. Also, the “residual binding on mutant” value in [13], in assay [14], in assay [15], in assay [16], in assay [17] and in assay [18] was at least 50% each time.
